# Patent US11912782B2, “BCMA monoclonal antibody-drug conjugate” (MedImmune, LLC, priority 2017, dated 2024)
# Entries after “also recorded” stand apart in the source; their conditions may differ.
# T1: BAFF-R (Homo sapiens, UniProt Q96RJ3)
# T1 construct: expressed in transfected cells
# T1 sequence (Q96RJ3 1-184): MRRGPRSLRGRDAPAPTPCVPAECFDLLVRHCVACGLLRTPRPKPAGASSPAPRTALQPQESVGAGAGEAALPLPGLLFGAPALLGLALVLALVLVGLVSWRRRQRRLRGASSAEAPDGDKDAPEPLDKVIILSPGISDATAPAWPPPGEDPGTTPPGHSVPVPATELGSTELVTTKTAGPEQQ
# T2: monomeric human sBCMA (Homo sapiens, UniProt Q02223)
# T2 construct: is comprised of the entire extracellular domain of the molecule; purchased GenScript
# T2 sequence (Q02223 1-54 limits assumed): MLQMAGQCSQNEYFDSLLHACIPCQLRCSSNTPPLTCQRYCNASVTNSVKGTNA
# T3: TACI (Homo sapiens, UniProt O14836)
# T3 construct: expressed in transfected cells
# T3 sequence (O14836 1-293): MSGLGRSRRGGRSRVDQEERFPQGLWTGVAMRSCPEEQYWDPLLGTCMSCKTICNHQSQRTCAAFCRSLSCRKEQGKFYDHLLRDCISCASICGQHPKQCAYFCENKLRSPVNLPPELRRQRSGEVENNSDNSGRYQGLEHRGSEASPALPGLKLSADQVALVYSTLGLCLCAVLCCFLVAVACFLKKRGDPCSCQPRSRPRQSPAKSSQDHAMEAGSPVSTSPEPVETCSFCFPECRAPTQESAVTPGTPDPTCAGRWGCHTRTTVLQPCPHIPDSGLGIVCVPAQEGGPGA
# B1: 15B2GL-SG3249: ADC: 15B2GL monoclonal antibody site-specifically conjugated to the PBD payload SG3249 (conjugate)
# VH: EVQLVESGGGLVKPGGSLRLSCAASGFTFRSYSMNWVRQAPGKGLEWVSSISGSSNYIYYADSVKGRFTISRDNAKNSLYLQMNSLRAEDTAVYYCARGGNYYVEYFQYWGQGTLVTVSS
# VL: EIVLTQSPGTLSLSPGERATLSCRASQYISSNYLAWYQQKPGQAPRLLIYGASNRATGIPDRFSGSGSGTDFTLTISRLEPEDFAVYYCQQYGSSPITFGQGTKLEIK
# B2: 15B2GL: germline form of anti-BCMA monoclonal antibody 15B2; VH SEQ ID NO: 7, VL SEQ ID NO: 8 (antibody, V domains shown)
# VH: B1 VH
# VL: B1 VL
# How the values were obtained:
# Raji = assay: In vitro cytotoxicity, CELLTITER-GLO, 96 hours (BCMA-negative line); assay type: cell-based; settings: Burkitt's lymphoma, BCMA receptor number 0
# Protocol: (§1) Killing of multiple myeloma and plasma cell leukemia cell lines by antibody-drug conjugates comprising 15B2GL, or affinity-optimized clones thereof, conjugated to SG3249 was evaluated in vitro using the protocol recommended in the CELLTITER-GLO® kit (Promega, Madison, Wis.). Killing of multiple myeloma and plasma cell leukemia cell lines by the free warhead SG3199 also was evaluated using the protocol recommended in the CELLTITER-GLO® kit (Promega, Madison, Wis.). Briefly, 5×10^3 cells in 80 μL RPMI+10% FBS were added to the inner wells of white-walled 96-well plates (Corning® Costar®, Fisher Scientific, Waltham, Mass.). The following BCMA-expressing cell lines were tested: NCI-H929, EJM, MM.1R. JJN3, OPM-2, MM.1S, U266.B1, and L363. BMCA-negative cell lines Raji and Jurkat also were tested. The antibody-drug conjugates were diluted to a 5× stock (2.5 μg/mL) in RPMI+10% FBS. Treatments were then serially diluted 1:3 in RPMI+10% FBS. […] Luminescence was measured using an EnVision™ Multilabel plate reader (Perkin Elmer, Waltham, Mass.). Data were analyzed and graphed using GraphPad Prism™ software (GraphPad Software, Inc., La Jolla, Calif.), and the half-maximal inhibitory concentration (IC50) was determined.
# Jurkat = assay: as above; assay type: cell-based; settings: T-lymphocyte, BCMA receptor number 0
# Protocol: as §1
# MM.1S xenograft = assay: MM.1S subcutaneous xenograft model (Example 5); assay type: in vivo, mouse; settings: single intravenous dose 1 mg/kg, observed for 99 days post tumor implantation
# Source text: (§2) Subcutaneous xenograft mouse models of multiple myeloma and plasma cell leukemia were generated by implanting BCMA-expressing multiple myeloma or plasma cell leukemia cell lines (i.e., NCI-H929, JJN-3, MM.1S, and MM.1R) into female CB-17 SCID (C.B-17/IcrHsd-Prkdc-scid) or athymic nude (Foxn1^nu) mice using MATRIGEL™ (BD Biosciences, San Jose, Calif.). Once tumors reached approximately 180 mm^3 (NCI-H929 cells), 190 mm^3 (JJN3 cells), 160 mm^3 (MM.1S cells), or 175 mm^3 (MM.1R cells), mice were randomized based on tumor size and placed into dosing groups and treated with BCMA-targeting ADCs as described below.
# Mice were treated with either a single intravenous dose of 15B2GL-SG3249, 109-SG3249, L15-SG3249 ADCs at 1 mg/kg or dosed intravenously with J6M0-mc-MMAF twice weekly at a dose of 1 mg/kg for 4 weeks. Control mice were left untreated.
# NCI-H929 xenograft = assay: NCI-H929 subcutaneous xenograft model (Example 5); assay type: in vivo, mouse; settings: single intravenous dose 0.3 mg/kg, observed for 99 days post tumor implantation
# Source text: as §2
# Mice were treated with either a single intravenous dose of the ADCs 15B2GL-SG3249, I09-5G3249, L15-SG3249 at 0.3 mg/kg or dosed intravenously with J6M0-mc-MMAF weekly at a dose of 0.3 mg/kg for 2 weeks. Control mice were left untreated.
# JJN3 xenograft = assay: JJN3 subcutaneous xenograft model; assay type: in vivo, mouse; settings: single intravenous dose 1 mg/kg, observed for 104 days post tumor implantation
# Source text: as §2
# Mice were treated with either a single intravenous dose of 15B2GL-SG3249, 109-SG3249, and L15-SG3249 ADCs at 1 mg/kg, or dosed intravenously with J6M0-mc-MMAF ADC weekly at a dose of 1 mg/kg for 3 weeks. Control mice were left untreated.
# MM.1R xenograft = assay: MM.1R subcutaneous xenograft model; assay type: in vivo, mouse; settings: single intravenous dose 1 mg/kg, observed for 109 days post tumor implantation
# Source text: as §2
# Mice were treated with either a single intravenous dose of 15B2GL-SG3249 at 1 mg/kg or dosed intravenously with J6M0-mc-MMAF weekly at a dose of 3 mg/kg for 4 weeks. Control mice were left untreated.
# [1] = tested on: MM stem cells (clonogenic cells in MM bone marrow biopsies); assay: Clonogenic (colony formation) assay on MM patient bone marrow samples; assay type: cell-based, human
# Protocol: In particular, cells were counted using a ViCELL™ counter (Beckmann-Coulter Life Sciences, Indianapolis, Ind.) and resuspended in IMDM+2% FBS at 10-fold higher density than required for plating. METHOCULT™ H4434 Classic (StemCell Technologies, Inc., Vancouver, BC, Canada) was mixed with 2000 cells per mL for MM263, MM284, and MM276, and 4000 cells per mL for MM277 following the manufacturer's instructions. 25-400 ng per mL of the test ADCs 15B2GL-SG3249 and J6M0-mc-MMAF was then added to appropriate tubes. A control IgG1-SG3249 antibody was added at only the high dose of 400 ng per mL. All tubes were vortexed thoroughly to mix and then allowed to sit undisturbed, allowing air bubbles to rise to the top. Once the bubbles had risen, 400 μL was removed with a 16-guage blunt end needle and carefully plated into one well of a 24-well ultralow attachment plate (VWR, Radnor, Pa.). Each treatment was plated in duplicate in the inner wells of the plate. PBS was added to the outer wells and the plate was incubated at 37° C. for 7-10 days. Colonies were counted by eye with documentation of colony formation by scanning plates on a Celigo® Image Cytometer (Nexcelom Biosciences, Lawrence, Mass.).
# MM.1S cells = assay: Cell killing in the presence of soluble BCMA (conditioned media from Ad293 cells expressing human BCMA); assay type: cell-based; settings: MM.1S and NCI-H929, sBCMA at levels up to 720 ng/mL
# Protocol: Killing of multiple myeloma and plasma cell leukemia cell lines by antibody-drug conjugates comprising 15B2GL, or affinity-optimized clones thereof, conjugated to SG3249 was evaluated in vitro using the protocol recommended in the CELLTITER-GLO® kit (Promega, Madison, Wis.). Killing of multiple myeloma and plasma cell leukemia cell lines by the free warhead SG3199 also was evaluated using the protocol recommended in the CELLTITER-GLO® kit (Promega, Madison, Wis.). Briefly, 5×10^3 cells in 80 μL RPMI+10% FBS were added to the inner wells of white-walled 96-well plates (Corning® Costar®, Fisher Scientific, Waltham, Mass.). The following BCMA-expressing cell lines were tested: NCI-H929, EJM, MM.1R. JJN3, OPM-2, MM.1S, U266.B1, and L363. BMCA-negative cell lines Raji and Jurkat also were tested. The antibody-drug conjugates were diluted to a 5× stock (2.5 μg/mL) in RPMI+10% FBS. Treatments were then serially diluted 1:3 in RPMI+10% FBS. 20 μL of this series was added to the cells in duplicate, resulting in a 12-point dose curve of antibody-drug conjugate ranging from 0.5 μg/mL at the highest concentration to 3×10^−[…] at the lowest. Isotype antibody-drug conjugate (IgG1-SG3249 and IgG1-mc-MMAF) and media-only controls also were included. Plates were incubated at 37° C., 5% CO2 for 96 hours. At the end of the incubation period, 100 μL of the Substrate Solution (Promega, Madison Wis.) was added to each well. Luminescence was measured using an EnVision™ Multilabel plate reader (Perkin Elmer, Waltham, Mass.). Data were analyzed and graphed using GraphPad Prism™ software (GraphPad Software, Inc., La Jolla, Calif.), and the half-maximal inhibitory concentration (IC50) was determined.
# The ability of the 15B2GL-SG3249 ADC to kill multiple myeloma cells in vitro in the presence of soluble BCMA (sBCMA) as compared to the I09-5G3249 ADC was evaluated in MM.1S cells using the protocol described above, except that tested cell lines also were treated with BCMA-containing conditioned media collected from Ad293 cells expressing human BCMA (FIGS. 3A and 3B). 15B2GL-SG3249 ADC cell killing in the presence of sBCMA also was compared to ADCs comprising the anti-BCMA antibody J6M0, which is described in U.S. Pat. No. 9,273,141.
# BAFF-R = molecular target: T1, BAFF-R; assay: FACS binding to Ad293 cells stably expressing BAFF-R
# Protocol: (§3) Antibodies 4679, 756, and 15B2GL (as described below) were analyzed by FACS to evaluate binding of antibodies to human BCMA, cynomolgus monkey BCMA, TACI, and BAFF-R using recombinant forms of the receptors stably expressed on Ad293 cells. Binding assays were performed by incubating antibodies 4679, 756, and 15B2GL with 200,000 cells at 4° C. for 45 minutes followed by two washes with PBS+2% FBS. Cells were then incubated with Alexa-Fluor® 647-labeled secondary antibodies at 4° C., followed by two washes in PBS+2% FBS. Anti-BAFF-R, anti-TACI, and anti-human BCMA-APC labeled antibodies were added according to manufacturer's recommended dilution in control wells. Cells were resuspended in 200 uL PBS+2% FBS+DAPI and antibody binding to live cells was analyzed using a Becton Dickinson™ Biosciences LSRII cytometer.
# [2] = tested on: H929 multiple myeloma cells; assay: Internalization by FACS on H929 cells; assay type: cell-based; settings: compared to J6M0 and the LO antibodies
# Protocol: The ability of the 15B2GL antibody and LO clones of 15B2GL to bind, internalize, and kill H929 multiple myeloma cells in vitro was assessed using Fab-ZAP and by FACS binding to endogenous BCMA expressed on cell lines as described above. Briefly, antibodies were incubated with 200,000 cells for 30 minutes at 4° C. followed by two washes with PBS+2% FBS. Cells were resuspended in 100 uL cold PBS+2% FBS and kept at 4° C. At certain timepoints, cells were washed and resuspended in warm RPMI+10% FBS and placed into a 37° C. incubator, 5% CO2. At the end of the experiment, cells were washed and then incubated with Alexa-Fluor® 647-labeled secondary antibodies at 4° C., followed by two washes in PBS+2% FBS. Cells were resuspended in 200 μL PBS+2% FBS+DAPI and antibody binding to live cells was analyzed using a Becton Dickinson Biosciences LSRII cytometer.
# cynomolgus monkey BCMA = assay: FACS binding to Ad293 cells stably expressing cynomolgus BCMA; settings: Ad293 cells expressing cynoBCMA
# Protocol: as §3
# monomeric human sBCMA = molecular target: T2, monomeric human sBCMA; assay: Kinetics/affinity measurement by SPR (BioRad ProteOn XPR36), antibody captured by anti-Fc, sBCMA flowed over; assay type: binding; settings: sBCMA 100-6.25 nM
# Protocol: The binding of 15B2GL monoclonal antibody and optimized clones I09, L15, P10, N22, and M02 (described in Example 1) was assessed using monomeric human sBCMA (GenScript, Piscataway, N.J.) using a ProteOn™ XPR36 instrument (Bio-Rad, Hercules, Calif.). The binding of J6M0 also was assessed for comparison. Standard amine coupling was used to immobilize 25 μg/ml anti-Fc polyclonal antibody (Jackson ImmunoResearch, West Grove, Pa.) prepared in 10 mM sodium acetate buffer (pH 4.5) to the surface of a ProteOn™ GLC biosensor chip (Bio-Rad, Hercules, Calif.) pre-activated with 20 mM EDAC (1-ethyl-3-(3-dimethylaminopropyl)carbodiimide hydrochloride) and 5 mM Sulfo-NHS (N-hydroxysulfosuccinimide) at a density of ˜200-600 resonance units (RU). 15B2GL, I09, L15, P10, N22, M02, and J6M0 were subsequently injected at a concentration of 1 μg/ml for capture by the immobilized anti-Fc polyclonal antibody. The sensorgram was recorded by flowing two-fold serial dilutions of sBCMA prepared in PBS (pH 7.4) with 0.005% (v/v) Tween®-20, ranging from 100-6.25 nM, over the captured surface for 150 seconds at 75 μL/minute with dissociation time of 600 seconds. ProteOn™ data analysis software was used to analyze the data.
# TACI = molecular target: T3, TACI; assay: FACS binding to Ad293 cells stably expressing TACI
# Protocol: as §3
molecule,measurement,setting,value
B1,IC50,Raji,>0.5 µg/mL
same,IC50,Jurkat,>0.5 µg/mL
same,tumor regrowth,MM.1S xenograft,no evidence of tumor regrowth
same,tumor regrowth,NCI-H929 xenograft,no evidence of tumor regrowth
same,tumor regrowth,JJN3 xenograft,no evidence of tumor regrowth
same,tumor regrowth,MM.1R xenograft,no evidence of tumor regrowth
same,colonies killed / reduction in colony formation,"[1]; patient sample MM263, 400 ng/mL",100%
same,colonies killed / reduction in colony formation,"[1]; patient sample MM276, 400 ng/mL",87.5%
same,colonies killed / reduction in colony formation,"[1]; patient sample MM277, 400 ng/mL",91%
same,colonies killed / reduction in colony formation,"[1]; patient sample MM284, 400 ng/mL",100%
same,tumor cells killed (average),MM.1S cells,95%
B2,Binding to BAFF-R,BAFF-R,did not bind
same,Internalization,[2],unique and rapid internalization
same,Cynomolgus cross-reactivity,cynomolgus monkey BCMA,cynomolgus cross-reactive; also recorded: cyno-cross reactive
same,Koff,monomeric human sBCMA,2.27E−02
same,Kon,monomeric human sBCMA,3.73E+05
same,Binding to TACI,TACI,did not bind
